The test deals with T1, recombinant human TNF R1/TNFRSF1A/Fc chimera (R+D Systems) (human, UniProt P19438 30-211).
T1 construct: Bought chimera; also called TNF-αR1; TNFR1 Fc; Fc part of the bought chimera not given
T1 sequence (looked up): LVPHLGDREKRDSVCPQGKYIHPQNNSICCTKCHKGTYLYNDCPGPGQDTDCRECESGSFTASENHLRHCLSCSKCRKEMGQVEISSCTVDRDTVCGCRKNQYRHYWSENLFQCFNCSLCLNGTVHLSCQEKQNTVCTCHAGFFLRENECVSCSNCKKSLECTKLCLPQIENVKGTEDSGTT
In words: sandwich ELISA, TNF R1 Fc chimera coated on the plate, anti-human IgG F(ab)2 then anti-goat/sheep-HRP detection.

From US20110256122A1 (published 2011) come the findings set out here.

B1: Dom 1h-131-206 (other)
chain: EVQLLESGGGLVQPGGSLRLSCAASGFTFAHETMVWVRQAPGKGLEWVSHIPPDGQDPFYADSVKGRFTISRDNSKNTLYLQMNSLRAEDTAVYHCALLPKRGPWFDYWGQGTLVTVSS
notes: Immunoglobulin single variable domain (dAb) with specificity for TNF-αR1; also called α-TNF-αR1 dAb; anti TNF alpha R1 dAb
With B1, the binding result is “binds”.
